Experimental data published in patent US20230265151A1, “GIP/GLP1 CO-AGONIST COMPOUNDS” (priority 2020, published 2023).
Substitutions are numbered along the chain they refer to. *1 amine or outer side, *2 acyl side, *3 side chain or, on linkers, in order; H or OH if unused. Where no end group is shown, it is not given here. Side-chain parts run from the residue outwards. [ ]: non-standard residue; d: D form. The star is where a group is joined. αMePhe(2-F) = C[C@](N)(Cc1ccccc1F)C(=O)O; γGlu = O=C(O)[C@H](CCC(=O)[*:2])N[*:1]; C14 diacid = O=C(O)CCCCCCCCCCCCC(=O)*; εLys = N[C@@H](CCCCN[*:1])C(=O)[*:2]; αMeY = C[C@](N)(Cc1ccc(O)cc1)C(=O)O; αMeL = CC(C)C[C@](C)(N)C(=O)O; Orn = NCCC[C@H](N)C(=O)O; Dap = NC[C@H](N)C(=O)O; AEEA = NCCOCCOCC(=O)O; Aib = CC(C)(N)C(=O)O

What was measured:
Assay in all cases: cell-based or functional assay
[1] = biological target: T1, human glucose-dependent insulinotropic polypeptide (GIP) receptor (human, UniProt P48546 22-466)
T1 sequence (looked up): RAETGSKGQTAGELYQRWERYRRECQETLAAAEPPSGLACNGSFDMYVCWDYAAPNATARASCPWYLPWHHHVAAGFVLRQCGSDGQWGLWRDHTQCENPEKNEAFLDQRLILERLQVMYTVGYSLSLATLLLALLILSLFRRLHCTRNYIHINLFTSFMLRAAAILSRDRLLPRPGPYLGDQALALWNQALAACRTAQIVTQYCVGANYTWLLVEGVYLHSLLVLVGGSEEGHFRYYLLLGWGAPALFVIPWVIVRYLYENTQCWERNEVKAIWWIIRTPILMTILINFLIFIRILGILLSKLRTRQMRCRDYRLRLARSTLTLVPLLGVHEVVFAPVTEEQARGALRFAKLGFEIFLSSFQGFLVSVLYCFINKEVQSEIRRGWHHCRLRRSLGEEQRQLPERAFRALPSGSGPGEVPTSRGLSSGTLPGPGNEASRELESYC

[2] = biological target: human glucagon-like peptide-1 (GLP-1) receptor (human, UniProt P43220 24-463)
[3] = biological target: hGLP-1R (Homo sapiens, UniProt P43220)
[4] = biological target: T2, human GIP receptor (human) (UniProt P48546)
T2 sequence (looked up): T1 sequence (looked up)

[5] = biological target: human glucagon receptor (human) (UniProt P47871)
[6] = biological target: T3, human GIP receptor (human, UniProt P48546 22-466)
T3 sequence (looked up): T1 sequence (looked up)

[7] = biological target: human GLP-1 receptor (human, UniProt P43220 24-463)

Binder: Y[Aib]EGT[αMePhe(2-F)]TSDV[Aib]I[αMeL]LD[Orn]K([AEEA-AEEA-εLys-C14 diacid])AQ[Aib]EFI[dE][αMeY]LIEGGK([AEEA-AEEA-εLys-C14 diacid])SSGAPPPS-NH2 [Example 163]
- cAMP EC50 [1]: 0.0427 nM
- cAMP Emax [1]: 98.2%
- cAMP EC50 [2]: 0.199 nM
- cAMP Emax [2]: 86.3%

B1: Example 164 (peptide)
peptide: Y[Aib]EGT[αMePhe(2-F)]TSDV[Aib]I[αMeL]LD[Orn]K([εLys-γGlu-C14 diacid])AQ[Aib]EFI[dE][αMeY]LIEGGK([εLys-γGlu-C14 diacid])SSGAPPPS-NH2
modifications: N-terminus assumed
SMILES: CC[C@H](C)[C@H](NC(=O)[C@H](CC(C)C)NC(=O)[C@](C)(Cc1ccc(O)cc1)NC(=O)[C@@H](CCC(=O)O)NC(=O)[C@@H](NC(=O)[C@H](Cc1ccccc1)NC(=O)[C@H](CCC(=O)O)NC(=O)C(C)(C)NC(=O)[C@H](CCC(N)=O)NC(=O)[C@H](C)NC(=O)[C@H](CCCCNC(=O)[C@@H](N)CCCCNC(=O)CC[C@H](NC(=O)CCCCCCCCCCCCC(=O)O)C(=O)O)NC(=O)[C@H](CCCN)NC(=O)[C@H](CC(=O)O)NC(=O)[C@H](CC(C)C)NC(=O)[C@](C)(CC(C)C)NC(=O)[C@@H](NC(=O)C(C)(C)NC(=O)[C@@H](NC(=O)[C@H](CC(=O)O)NC(=O)[C@H](CO)NC(=O)[C@@H](NC(=O)[C@](C)(Cc1ccccc1F)NC(=O)[C@@H](NC(=O)CNC(=O)[C@H](CCC(=O)O)NC(=O)C(C)(C)NC(=O)[C@@H](N)Cc1ccc(O)cc1)[C@@H](C)O)[C@@H](C)O)C(C)C)[C@@H](C)CC)[C@@H](C)CC)C(=O)N[C@@H](CCC(=O)O)C(=O)NCC(=O)NCC(=O)N[C@@H](CCCCNC(=O)[C@@H](N)CCCCNC(=O)CC[C@H](NC(=O)CCCCCCCCCCCCC(=O)O)C(=O)O)C(=O)N[C@@H](CO)C(=O)N[C@@H](CO)C(=O)NCC(=O)N[C@@H](C)C(=O)N1CCC[C@H]1C(=O)N1CCC[C@H]1C(=O)N1CCC[C@H]1C(=O)N[C@@H](CO)C(N)=O
- cAMP EC50 [1]: 0.0464 nM
- cAMP Emax [1]: 95.8%
- cAMP EC50 [2]: 0.236 nM

B2: Example 201 (peptide)
peptide: Y[Aib]EGT[αMePhe(2-F)]TSDV[Dap]I[αMeL]LD[Orn]K([AEEA-AEEA-γGlu-C14 diacid])AQ[Aib]EFI[dE][αMeY]LIEGGK([AEEA-AEEA-γGlu-C14 diacid])SSGAPPPS-NH2
modifications: N-terminus assumed
SMILES: CC[C@H](C)[C@H](NC(=O)[C@H](CC(C)C)NC(=O)[C@](C)(Cc1ccc(O)cc1)NC(=O)[C@@H](CCC(=O)O)NC(=O)[C@@H](NC(=O)[C@H](Cc1ccccc1)NC(=O)[C@H](CCC(=O)O)NC(=O)C(C)(C)NC(=O)[C@H](CCC(N)=O)NC(=O)[C@H](C)NC(=O)[C@H](CCCCNC(=O)COCCOCCNC(=O)COCCOCCNC(=O)CC[C@H](NC(=O)CCCCCCCCCCCCC(=O)O)C(=O)O)NC(=O)[C@H](CCCN)NC(=O)[C@H](CC(=O)O)NC(=O)[C@H](CC(C)C)NC(=O)[C@](C)(CC(C)C)NC(=O)[C@@H](NC(=O)[C@H](CN)NC(=O)[C@@H](NC(=O)[C@H](CC(=O)O)NC(=O)[C@H](CO)NC(=O)[C@@H](NC(=O)[C@](C)(Cc1ccccc1F)NC(=O)[C@@H](NC(=O)CNC(=O)[C@H](CCC(=O)O)NC(=O)C(C)(C)NC(=O)[C@@H](N)Cc1ccc(O)cc1)[C@@H](C)O)[C@@H](C)O)C(C)C)[C@@H](C)CC)[C@@H](C)CC)C(=O)N[C@@H](CCC(=O)O)C(=O)NCC(=O)NCC(=O)N[C@@H](CCCCNC(=O)COCCOCCNC(=O)COCCOCCNC(=O)CC[C@H](NC(=O)CCCCCCCCCCCCC(=O)O)C(=O)O)C(=O)N[C@@H](CO)C(=O)N[C@@H](CO)C(=O)NCC(=O)N[C@@H](C)C(=O)N1CCC[C@H]1C(=O)N1CCC[C@H]1C(=O)N1CCC[C@H]1C(=O)N[C@@H](CO)C(N)=O
- cAMP EC50 [1]: 0.188 nM
- cAMP Emax [1]: 92.2%
- cAMP EC50 [2]: 0.487 nM

B3: Example 165 (peptide)
peptide: Y[Aib]EGT[αMePhe(2-F)]TSDV[Aib]I[αMeL]LD[Orn]K([εLys-εLys-γGlu-C14 diacid])AQ[Aib]EFI[dE][αMeY]LIEGGK([εLys-εLys-γGlu-C14 diacid])SSGAPPPS-NH2
modifications: N-terminus assumed
SMILES: CC[C@H](C)[C@H](NC(=O)[C@H](CC(C)C)NC(=O)[C@](C)(Cc1ccc(O)cc1)NC(=O)[C@@H](CCC(=O)O)NC(=O)[C@@H](NC(=O)[C@H](Cc1ccccc1)NC(=O)[C@H](CCC(=O)O)NC(=O)C(C)(C)NC(=O)[C@H](CCC(N)=O)NC(=O)[C@H](C)NC(=O)[C@H](CCCCNC(=O)[C@@H](N)CCCCNC(=O)[C@@H](N)CCCCNC(=O)CC[C@H](NC(=O)CCCCCCCCCCCCC(=O)O)C(=O)O)NC(=O)[C@H](CCCN)NC(=O)[C@H](CC(=O)O)NC(=O)[C@H](CC(C)C)NC(=O)[C@](C)(CC(C)C)NC(=O)[C@@H](NC(=O)C(C)(C)NC(=O)[C@@H](NC(=O)[C@H](CC(=O)O)NC(=O)[C@H](CO)NC(=O)[C@@H](NC(=O)[C@](C)(Cc1ccccc1F)NC(=O)[C@@H](NC(=O)CNC(=O)[C@H](CCC(=O)O)NC(=O)C(C)(C)NC(=O)[C@@H](N)Cc1ccc(O)cc1)[C@@H](C)O)[C@@H](C)O)C(C)C)[C@@H](C)CC)[C@@H](C)CC)C(=O)N[C@@H](CCC(=O)O)C(=O)NCC(=O)NCC(=O)N[C@@H](CCCCNC(=O)[C@@H](N)CCCCNC(=O)[C@@H](N)CCCCNC(=O)CC[C@H](NC(=O)CCCCCCCCCCCCC(=O)O)C(=O)O)C(=O)N[C@@H](CO)C(=O)N[C@@H](CO)C(=O)NCC(=O)N[C@@H](C)C(=O)N1CCC[C@H]1C(=O)N1CCC[C@H]1C(=O)N1CCC[C@H]1C(=O)N[C@@H](CO)C(N)=O
- cAMP EC50 [1]: 0.0442 nM
- cAMP Emax [1]: 96.1%
- cAMP EC50 [2]: 0.291 nM

B4: Example 465 (peptide)
peptide: YXEGTXTSDXXIXLDXKAQXEFIXXLIKGGPSSGAPPPS
modifications: Y-Aib-EGT-αMeF(2F)-TSD-4Pal-Aib-I-αMeL-LD-Orn-K((2-[2-(2-Amino-ethoxy)-ethoxy]-acetyl)-Aoc-CO-(CH2)12-CO2H)AQ-Aib-EFI-(D-Glu)-αMeY-LIK(((2-[2-(2-Amino-ethoxy)-ethoxy]-acetyl)-Aoc-CO-(CH2)12-CO2H)GGPSSGAPPPS-NH2)
- cAMP EC50 [3]: 0.413 nM
- cAMP Emax [3]: 98.6%
- cAMP EC50 [4]: 0.0174 nM
- cAMP Emax [4]: 94.9%
- cAMP EC50 [5]: > 9950 nM
- cAMP EC50 (1.0% HSA) [6]: 3.63 nM
- cAMP Emax (1.0% HSA) [6]: 94.4%
- cAMP EC50 (1.0% HSA) [7]: 73.2 nM

B5: Example 212 (peptide)
peptide: B4 peptide with X10V, K28E, P31K
modifications: Aib2, αMeF(2F)6, αMeS11, αMeL13, Orn16, K17(Z), Aib20, D-Glu24, αMeY25, K31(Z), C-terminal NH2; Z = AEEA2-(γ-Glu)-CO-(CH2)12-CO2H
- cAMP EC50 [1]: 0.0385 nM
- cAMP Emax [1]: 100%
- cAMP EC50 [2]: 0.265 nM
